The supplement of paper PMC11246515
± gives the standard deviation of the averaged measurements.

Test: total protein half-life in vivo (active degradation + dilution); higher = more stable protein
[1] = E. coli NCM3722 delta-clpP delta-lon delta-hslV, growth: N-lim chemostat, doubling time 6 h
[2] = E. coli NCM3722 delta-clpP, growth: N-lim chemostat, doubling time 6 h
[3] = wild type E. coli NCM3722, growth: C-lim chemostat, doubling time 3 h
[4] = wild type E. coli NCM3722, growth: C-lim chemostat, doubling time 6 h
[5] = wild type E. coli NCM3722, growth: C-lim chemostat, doubling time 12 h
[6] = wild type E. coli NCM3722, growth: N-lim chemostat, doubling time 6 h
[7] = wild type E. coli NCM3722, growth: P-lim chemostat, doubling time 6 h
[8] = wild type E. coli NCM3722, growth: P-lim chemostat, doubling time 12 h
[9] = E. coli NCM3722 delta-hslV, growth: N-lim chemostat, doubling time 6 h
[10] = E. coli NCM3722 delta-lon, growth: N-lim chemostat, doubling time 6 h
[11] = E. coli NCM3722 delta-smpB, growth: N-lim chemostat, doubling time 6 h
[12] = wild type E. coli NCM3722, growth: N-lim chemostat, doubling time 12 h

## MNLDDIINSMMPEVYQRLSTAVELGKWPDGVALTEEQKENCLQLVMLWQARHNIEAQHMTIDTNGQMVMKSKQQLKEDFGISAKPIAMFK
[1]
  total protein half-life in vivo: 4.42 ± 2.1 h
[2]
  total protein half-life in vivo: 0.712 h
[3]
  total protein half-life in vivo: 0.231 ± 0.0036 h
[4]
  total protein half-life in vivo: 0.237 ± 0.16 h
[5]
  total protein half-life in vivo: 0.116 ± 0.16 h
[6]
  total protein half-life in vivo: 0.172 h
[7]
  total protein half-life in vivo: 0.371 ± 0.17 h
[8]
  total protein half-life in vivo: 1.17 ± 1.3 h

## MELLCPAGNLPALKAAIENGADAVYIGLKDDTNARHFAGLNFTEKKLQEAVSFVHQHRRKLHIAINTFAHPDGYARWQRAVDMAAQLGADALILADLAMLEYAAERYPHIERHVSVQASATNEEAINFYHRHFDVARVVLPRVLSIHQVKQLARVTPVPLEVFAFGSLCIMSEGRCYLSSYLTGESPNTIGACSPARFVRWQQTPQGLESRLNEVLIDRYQDGENAGYPTLCKGRYLVDGERYHALEEPTSLNTLELLPELMAANIASVKIEGRQRSPAYVSQVAKVWRQAIDRCKADPQNFVPQSAWMETLGSMSEGTQTTLGAYHRKWQ
[1]
  total protein half-life in vivo: 4.53 h

## MIRQVIQRISNPEASIESLQERRFWLQCERAYTWQPIYQTCGRLMAVELLTVVTHPLNPSQRLPPDRYFTEITVSHRMEVVKEQIDLLAQKADFFIEHGLLASVNIDGPTLIALRQQPKILRQIERLPWLRFELVEHIRLPKDSTFASMCEFGPLWLDDFGTGMANFSALSEVRYDYIKIARELFVMLRQSPEGRTLFSQLLHLMNRYCRGVIVEGVETPEEWRDVQNSPAFAAQGWFLSRPAPIETLNTAVLAL
[3]
  total protein half-life in vivo: 0.512 ± 0.23 h

## MNIVDQQTFRDAMSCMGAAVNIITTDGPAGRAGFTASAVCSVTDTPPTLLVCLNRGASVWPAFNENRTLCVNTLSAGQEPLSNLFGGKTPMEHRFAAARWQTGVTGCPQLEEALVSFDCRISQVVSVGTHDILFCAIEAIHRHTTPYGLVWFDRSYHALMRPAC
[1]
  total protein half-life in vivo: 5.375 ± 0.033 h
[2]
  total protein half-life in vivo: 0.819 ± 0.077 h
[9]
  total protein half-life in vivo: 0.419 h
[10]
  total protein half-life in vivo: 0.406 h
[11]
  total protein half-life in vivo: 0.684 ± 0.19 h
[6]
  total protein half-life in vivo: 0.452 h
[12]
  total protein half-life in vivo: 1.16 h

## MSLLNVPAGKDLPEDIYVVIEIPANADPIKYEIDKESGALFVDRFMSTAMFYPCNYGYINHTLSLDGDPVDVLVPTPYPLQPGSVIRCRPVGVLKMTDEAGEDAKLVAVPHSKLSKEYDHIKDVNDLPELLKAQIAHFFEHYKDLEKGKWVKVEGWENAEAAKAEIVASFERAKNK [P0A7A9]
[1]
  total protein half-life in vivo: 5.91 ± 0.78 h
[2]
  total protein half-life in vivo: 4.83 ± 0.22 h
[9]
  total protein half-life in vivo: 5.09 ± 0.49 h
[10]
  total protein half-life in vivo: 6.36 ± 0.52 h
[11]
  total protein half-life in vivo: 5.358 ± 0.02 h
[3]
  total protein half-life in vivo: 3.48 ± 0.71 h
[4]
  total protein half-life in vivo: 5.73 ± 0.47 h
[5]
  total protein half-life in vivo: 10.6 ± 0.65 h
[6]
  total protein half-life in vivo: 4.34 ± 0.4 h
[12]
  total protein half-life in vivo: 8.63 ± 0.47 h
[7]
  total protein half-life in vivo: 5.65 ± 1.4 h
[8]
  total protein half-life in vivo: 14.4 ± 1.1 h

## MTEKVKQHAAPVTGSDEIDIGRLVGTVIEARWWVIGITTVFALCAVVYTFFATPIYSADALVQIEQNSGNSLVQDIGSALANKPPASDAEIQLIRSRLVLGKTVDDLDLDIAVSKNTFPIFGAGWDRLMGRQNETVKVTTFNRPKEMADQVFTLNVLDNKNYTLSSDGGFSARGQAGQMLKKEGVTLMVEAIHASPGSEFTVTKYSTLGMINQLQNSLTVTENGKDAGVLSLTYTGEDREQIRDILNSIARNYQEQNIERKSAEASKSLAFLAQQLPEVRSRLDVAENKLNAFRQDKDSVDLPLEAKAVLDSMVNIDAQLNELTFKEAEISKLYTKVHPAYRTLLEKRQALEDEKAKLNGRVTAMPKTQQEIVRLTRDVESGQQVYMQLLNKEQELKITEASTVGDVRIVDPAITQPGVLKPKKGLIILGAIILGLMLSIVGVLLRSLFNRGIESPQVLEEHGISVYASIPLSEWQKARDSVKTIKGIKRYKQSQLLAVGNPTDLAIEAIRSLRTSLHFAMMQAQNNVLMMTGVSPSIGKTFVCANLAAVISQTNKRVLLIDCDMRKGYTHELLGTNNVNGLSEILIGQGDITTAAKPTSIAKFDLIPRGQVPPNPSELLMSERFAELVNWASKNYDLVLIDTPPILAVTDAAIVGRHVGTTLMVARYAVNTLKEVETSLSRFEQNGIPVKGVILNSIFRRASAYQDYGYYEYEYKSDAK
[10]
  total protein half-life in vivo: 4.27 ± 0.44 h
[11]
  total protein half-life in vivo: 2.13 ± 0.52 h
[3]
  total protein half-life in vivo: 2.75 h

## MAITGIFFGSDTGNTENIAKMIQKQLGKDVADVHDIAKSSKEDLEAYDILLLGIPTWYYGEAQCDWDDFFPTLEEIDFNGKLVALFGCGDQEDYAEYFCDALGTIRDIIEPRGATIVGHWPTAGYHFEASKGLADDDHFVGLAIDEDRQPELTAERVEKWVKQISEELHLDEILNA
[1]
  total protein half-life in vivo: 5.32 ± 1.2 h
[2]
  total protein half-life in vivo: 5.07 ± 0.65 h
[9]
  total protein half-life in vivo: 4.45 ± 0.27 h
[10]
  total protein half-life in vivo: 4.59 ± 0.44 h
[11]
  total protein half-life in vivo: 4.64 ± 0.75 h
[4]
  total protein half-life in vivo: 5.31 ± 0.73 h
[5]
  total protein half-life in vivo: 7.02 ± 3 h
[6]
  total protein half-life in vivo: 4.71 ± 0.14 h
[12]
  total protein half-life in vivo: 8.16 ± 0.92 h
[7]
  total protein half-life in vivo: 6.33 ± 0.46 h

## MEWSLTQNKLLAFHRLMRTDKPIGALLLLWPTLWALWVATPGVPQLWILAVFVAGVWLMRAAGCVVNDYADRKFDGHVKRTANRPLPSGAVTEKEARALFVVLVLISFLLVLTLNTMTILLSIAALALAWVYPFMKRYTHLPQVVLGAAFGWSIPMAFAAVSESVPLSCWLMFLANILWAVAYDTQYAMVDRDDDVKIGIKSTAILFGQYDKLIIGILQIGVLALMAIIGELNGLGWGYYWSILVAGALFVYQQKLIANREREACFKAFMNNNYVGLVLFLGLAMSYWHF [P0AGK1]
[1]
  total protein half-life in vivo: 1.5 ± 0.18 h
[2]
  total protein half-life in vivo: 1.13 h
[9]
  total protein half-life in vivo: 1.29 h
[10]
  total protein half-life in vivo: 0.759 h
[11]
  total protein half-life in vivo: 1.45 ± 0.17 h
[3]
  total protein half-life in vivo: 1.27 ± 0.027 h
[4]
  total protein half-life in vivo: 1.92 ± 0.27 h
[5]
  total protein half-life in vivo: 2.32 ± 0.41 h
[6]
  total protein half-life in vivo: 1.29 ± 0.2 h
[7]
  total protein half-life in vivo: 2.18 ± 0.52 h
[8]
  total protein half-life in vivo: 2.85 h

## MIRVACVGITVMDRIYYVEGLPTESGKYVARNYTEVGGGPAATAAVAAARLGAQVDFIGRVGDDDTGNSLLAELESWGVNTRYTKRYNQAKSSQSAIMVDTKGERIIINYPSPDLLPDAEWLEEIDFSQWDVVLADVRWHDGAKKAFTLARQAGVMTVLDGDITPQDISELVALSDHAAFSEPGLARLTGVKEMASALKQAQTLTNGHVYVTQGSAGCDWLENGGRQHQPAFKVDVVDTTGAGDVFHGALAVALATSGDLAESVRFASGVAALKCTRPGGRAGIPDCDQTRSFLSLFV
[1]
  total protein half-life in vivo: 6.62 ± 1.4 h
[3]
  total protein half-life in vivo: 2.49 ± 0.19 h
[4]
  total protein half-life in vivo: 5.95 ± 1.4 h
[5]
  total protein half-life in vivo: 7.92 ± 0.52 h
